We go through 5 substances from patent US20260069689A1.

Assay [1] concerns the target T1, human CD20 on Jurkat cells (human) (UniProt P11836).
T1 sequence: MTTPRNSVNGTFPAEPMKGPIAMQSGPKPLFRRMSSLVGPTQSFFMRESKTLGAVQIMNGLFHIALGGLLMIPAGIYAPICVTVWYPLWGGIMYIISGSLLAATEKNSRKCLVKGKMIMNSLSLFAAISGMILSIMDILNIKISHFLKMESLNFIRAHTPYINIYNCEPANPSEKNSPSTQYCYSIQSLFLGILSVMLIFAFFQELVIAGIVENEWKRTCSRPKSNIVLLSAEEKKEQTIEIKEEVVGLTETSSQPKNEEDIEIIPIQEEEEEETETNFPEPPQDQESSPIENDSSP
Kind of assay: cell-based or functional assay.

Assay [2] has as its target full-length SARS-CoV-2 spike protein (Wuhan-Hu-1) on Jurkat/hCD20 cells (SARS-CoV-2) (UniProt P0DTC2). Kind of assay: cell-based or functional assay.
Assay [3] concerns the target human FcγR3a 176Val allotype receptor (human) (UniProt P08637). The assay can be described thus: cell-based or functional assay.
The target in assay [4] is hACE-2-10His (human) (UniProt Q9BYF1). The assay can be described thus: ELISA, hACE-2-10His coated on the plate. In general terms: ELISA stands for enzyme-linked immunosorbent assay.

In assay [1], IgG1 isotype control (antibody) displayed a Max ADCP (%), MDM donor #1, Jurkat/hCD20 cells of 16.9%; a Max ADCP (%), MDM donor #2, Jurkat/hCD20 cells of 14.6%; a Max cytotoxicity (%), ADCC, NK donor #1, Jurkat/hCD20 cells of 0.7%; a Max cytotoxicity (%), ADCC, NK donor #2, Jurkat/hCD20 cells of 6.4%. In assay [1], the Max cytotoxicity (%), ADCC, NK donor #3, Jurkat/hCD20 cells came to 0.5% and the Max cytotoxicity (%), ADCC, pooled primary NK cells, Jurkat/hCD20 cells is 0.6%. Also, in assay [2], the Max ADCP (%), MDM donor #1, Jurkat/hCD20/SARS-CoV-2 S FL cells was determined as 13.1%; the Max ADCP (%), MDM donor #2, Jurkat/hCD20/SARS-CoV-2 S FL cells came out at 9.6%; the Max cytotoxicity (%), ADCC, NK donor #1, Jurkat/hCD20/SARS-CoV-2 S FL cells came out at 1.8%; the Max cytotoxicity (%), ADCC, NK donor #2, Jurkat/hCD20/SARS-CoV-2 S FL cells is 0%. In addition, the Max cytotoxicity (%), ADCC, NK donor #3, Jurkat/hCD20/SARS-CoV-2 S FL cells in assay [2] came out at 0%.
As for mAb10987 (antibody), in assay [3], the EC50 (M), Jurkat/CD20/spike worked out at 4.71e-10 M. In assay [1], this substance had a Max ADCP (%), MDM donor #1, Jurkat/hCD20 cells of 14.8%; a Max ADCP (%), MDM donor #2, Jurkat/hCD20 cells of 10.7%; a Max cytotoxicity (%), ADCC, NK donor #1, Jurkat/hCD20 cells of 3.9%; a Max cytotoxicity (%), ADCC, NK donor #2, Jurkat/hCD20 cells of 1.9%. Besides, in assay [2], the EC50 (M) of ADCC, NK donor #1, Jurkat/hCD20/SARS-CoV-2 S FL cells is 7.42e-10 M; the EC50 (M) of ADCC, NK donor #2, Jurkat/hCD20/SARS-CoV-2 S FL cells came out at 5.05e-09 M; the EC50 (M) of ADCC, NK donor #3, Jurkat/hCD20/SARS-CoV-2 S FL cells was determined as 6.44e-11 M; the EC50 (M) of ADCP, MDM donor #1, Jurkat/hCD20/SARS-CoV-2 S FL cells came to 2.91e-11 M. In assay [2], this substance registered an EC50 (M) of ADCP, MDM donor #2, Jurkat/hCD20/SARS-CoV-2 S FL cells of 1.98e-11 M; an EC50 [M] of ADCP, macrophages, Jurkat/hCD20/SARS-CoV-2 spike cells of 3.19e-11 M; a Max % ADCP, macrophages, Jurkat/hCD20/SARS-CoV-2 spike cells of 36.3%; a Max ADCP (%), MDM donor #1, Jurkat/hCD20/SARS-CoV-2 S FL cells of 32.3%. In assay [2], this substance gave a Max ADCP (%), MDM donor #2, Jurkat/hCD20/SARS-CoV-2 S FL cells of 30.4%; a Max cytotoxicity (%), ADCC, NK donor #1, Jurkat/hCD20/SARS-CoV-2 S FL cells of 8.1%; a Max cytotoxicity (%), ADCC, NK donor #2, Jurkat/hCD20/SARS-CoV-2 S FL cells of 10.5%; a Max cytotoxicity (%), ADCC, NK donor #3, Jurkat/hCD20/SARS-CoV-2 S FL cells of 26.6%.
For the substance casirivimab + imdevimab, in assay [2], the EC50 (M) of ADCC, NK donor #3, Jurkat/hCD20/SARS-CoV-2 S FL cells was determined as 3.6e-11 M; the EC50 (M) of ADCP, MDM donor #1, Jurkat/hCD20/SARS-CoV-2 S FL cells was 1.2e-10 M; the EC50 (M) of ADCP, MDM donor #2, Jurkat/hCD20/SARS-CoV-2 S FL cells stood at 5.78e-11 M; the Max ADCP (%), MDM donor #1, Jurkat/hCD20/SARS-CoV-2 S FL cells came to 49.5%. In assay [2], the Max ADCP (%), MDM donor #2, Jurkat/hCD20/SARS-CoV-2 S FL cells came out at 48.2%; the Max cytotoxicity (%), ADCC, NK donor #1, Jurkat/hCD20/SARS-CoV-2 S FL cells was 1.6%; the Max cytotoxicity (%), ADCC, NK donor #2, Jurkat/hCD20/SARS-CoV-2 S FL cells worked out at 4.1%; the Max cytotoxicity (%), ADCC, NK donor #3, Jurkat/hCD20/SARS-CoV-2 S FL cells came out at 15.4%.
Take mAb10933 (antibody): in assay [3], the EC50 (M), Jurkat/CD20/spike was determined as 6.47e-10 M; the Fold induction, Jurkat CD20 was determined as 1.1 fold; the Fold induction, Jurkat/CD20/spike amounted to 2.9 fold. In assay [1], this substance registered a Max ADCP (%), MDM donor #1, Jurkat/hCD20 cells of 14%; a Max ADCP (%), MDM donor #2, Jurkat/hCD20 cells of 11.5%; a Max cytotoxicity (%), ADCC, NK donor #1, Jurkat/hCD20 cells of 4.7%; a Max cytotoxicity (%), ADCC, NK donor #2, Jurkat/hCD20 cells of 3.6%. For the same substance, the Max cytotoxicity (%), ADCC, NK donor #3, Jurkat/hCD20 cells in assay [1] was found to be 1.2%. In assay [2], the EC50 (M) of ADCC, NK donor #3, Jurkat/hCD20/SARS-CoV-2 S FL cells came to 4.89e-11 M; the EC50 (M) of ADCP, MDM donor #1, Jurkat/hCD20/SARS-CoV-2 S FL cells came out at 9.7e-12 M; the EC50 (M) of ADCP, MDM donor #2, Jurkat/hCD20/SARS-CoV-2 S FL cells was 2.23e-11 M; the EC50 [M] of ADCP, macrophages, Jurkat/hCD20/SARS-CoV-2 spike cells came to 3.88e-11 M. In assay [2], this substance returned a Max % ADCP, macrophages, Jurkat/hCD20/SARS-CoV-2 spike cells of 33.1%; a Max ADCP (%), MDM donor #1, Jurkat/hCD20/SARS-CoV-2 S FL cells of 28.3%; a Max ADCP (%), MDM donor #2, Jurkat/hCD20/SARS-CoV-2 S FL cells of 28.6%; a Max cytotoxicity (%), ADCC, NK donor #1, Jurkat/hCD20/SARS-CoV-2 S FL cells of 1.4%. In addition, in assay [2], the Max cytotoxicity (%), ADCC, NK donor #2, Jurkat/hCD20/SARS-CoV-2 S FL cells was 5% and the Max cytotoxicity (%), ADCC, NK donor #3, Jurkat/hCD20/SARS-CoV-2 S FL cells came to 11.1%.
As to SARS-CoV-2 RBD.mmh, the EC50 in assay [4] turned out to be 300 pM.

For orientation: EC50 means the concentration that produces a half-maximal response.
